According to paper PMC11480844:

B1: H2-Kb / B6 (parent)
chain 1: GDSVTQTEGLVTVTEGLPVKLNCTYQTTYLTIAFFWYVQYLNEAPQVLLKSSTDNKRTEHQGFHATLHKSSSSFHLQKSSAQLSDSALYYCALSLGNAGAKLTFGGGTRLTVRP
chain 2: EAAVTQSPRNKVTVTGGNVTLSCRQTNSHNYMYWYRQDTGHGLRLIHYSYGAGNLQIGDVPDGYKATRTTQEDFFLLLELASPSQTSLYFCASSDGMISSSYEQYFGPGTRLTVL
chain 3: not shown
chain 4: IQKTPQIQVYSRHPPENGKPNILNCYVTQFHPPHIEIQMLKNGKKIPKVEMSDMSFSKDWSFYILAHTEFTPTETDTYACRVKHDSMAEPKTVYWDRDM
chain 5: SIINFEKL
B2: H2-Kb / F5 (parent)
chain 1: GDSVTQTEGLVTLTEGLPVMLNCTYQSTYSPFLFWYVQHLNEAPKLLLKSFTDNKRPEHQGFHATLHKSSSSFHLQKSSAQLSDSALYYCALSPSNMGYKLTFGTGTSLLVDP
chain 2: EAAVTQSPRNKVAVTGGKVTLSCNQTNNHNNMYWYRQDTGHGLRLIHYSYGAGSTEKGDIPDGYKASRPSQENFSLILELATPSQTSVYFCASGDASEQYFGPGTRLTVL
chain 3: not shown
chain 4: B1 chain 4
chain 5: SIINFEKL

Variants of: B1
Experiment: % of reporter cells activated (NFAT-GFP), raw
Parameters: unit not given here
Details: with B6
Note: test concentration or dose not given here.

Ratio to parent, by site and new letter:
chain 5 I2: F 1.01; A 1.13; V 0.987; S 0.987; G 0.966; Q 0.886; E 0.879; K 1.08; R 0.765; C 1.18
chain 5 F5: Q 1.07; G 1.17; P 0.973; E 1.74; L 1.08; R 0.765; Y 1.28; I 1.09; K 1.28; M 1; V 1.09; D 1.25; H 1.28; A 1.15; W 1.15; T 0.993; N 0.966; C 1.47; S 0.98

Variants of: B2
Experiment: % of reporter cells activated (NFAT-GFP), raw
Details: with F5; scale: % of reporter cells activated

Ratio to parent: each site, then its substitutions
chain 5 I3: G 0.292; W 0.243; H 0.311; F 0.3; D 0.255; V 0.487; T 0.356; Q 0.464; E 0.517; Y 0.3; P 0.427; M 0.255; N 0.251; C 0.419; K 0.345; S 0.348; L 0.547; R 0.161
chain 5 K7: L 3.69; Y 0.423; D 0.341; N 0.386; G 0.318; C 0.588; T 1.72; E 0.184; V 2.14; H 0.61; A 0.903; R 2.89; P 0.322; M 5.55; F 2.64; Q 1.38; S 0.775; W 0.498; I 2.55
chain 5 S1: K 0.326; N 0.161; V 0.307; E 0.33; R 0.225; D 0.288; Y 0.337; H 0.337; C 0.296; T 0.573; P 0.315; G 0.629; F 0.262; M 0.281; L 0.375; A 0.521; I 0.262; Q 0.554; W 0.292
chain 5 N4: T 0.337; F 0.509; A 0.262; G 0.24; H 0.36; Q 0.15; E 0.21; I 0.315; M 0.431; W 0.438; V 0.322; L 0.401; Y 0.307; C 0.232; S 0.303; R 0.191; K 0.184; D 0.21; P 0.36
chain 5 L8: H 1.55; N 0.21; S 1.39; M 0.427; P 0.352; W 0.292; K 0.633; A 0.195; C 2.82; V 0.521; I 0.858; G 0.352; E 0.285; R 0.345; F 0.247; D 1.91; T 0.453; Y 0.742; Q 0.288
